From US20030129703A1 (Regeneron, published 2003)

Tests used:
[1] = biological target: T1, hNGΔ133-179Fc (human, UniProt Q13253 28-232); assay: binding to BMP4; assay not detailed
T1 construct: not shown: peptide bridge to the Fc; Fc domain of human IgG1
T1 sequence: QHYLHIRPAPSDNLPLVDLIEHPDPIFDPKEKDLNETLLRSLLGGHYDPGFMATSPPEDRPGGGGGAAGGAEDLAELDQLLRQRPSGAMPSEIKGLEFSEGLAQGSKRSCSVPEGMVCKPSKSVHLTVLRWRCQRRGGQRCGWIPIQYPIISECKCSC

[2] = biological target: T2, Fc-tagged human noggin (human, UniProt Q13253 28-232); assay: ELISA on plate-coated hBMP4
T2 construct: Secreted protein; also called hNG-Fc; not shown: Fc domain of human IgG1 (BspEI-NotI human IgG1 fragment), hinge and Fc
T2 sequence: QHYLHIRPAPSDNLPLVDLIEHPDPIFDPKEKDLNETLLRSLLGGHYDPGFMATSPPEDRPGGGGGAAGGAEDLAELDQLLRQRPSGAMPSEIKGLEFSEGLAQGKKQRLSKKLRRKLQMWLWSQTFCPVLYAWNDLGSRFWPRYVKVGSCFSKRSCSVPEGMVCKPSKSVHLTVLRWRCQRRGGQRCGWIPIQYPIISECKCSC
Protocol: Unbound hBMP4 was removed by washing four times with PBS, and the plates were blocked with 1% BSA in PBS. […] After a 1 hour incubation unbound anti-Fc●AP was removed by washing four times with TBS+0.1% Tween and then Alkaline Phosphatase substrate (para-nitrophenyl phosphate; Sigma) was added. Alkaline Phosphatase converts this substrate to a product whose production can be monitored by measuring Absorbance at 405 nm.
To determine if this hNG mutein was active, its ability to bind to hBMP4 was compared with that of hNG-Fc, which binds human Bone Morphogenetic Protein 4 (hBMP4) with affinity essentially identical to that of untagged hNG. An ELISA format assay where hBMP4 is captured on the surface of an ELISA plate was used to compare the two proteins.

binding result [1]: no binding
binding result [2]: binds
B1: human Bone Morphogenetic Protein 4 (ligand, UniProt P12644 293-408, looked up)
chain: SPKHHSQRARKKNKNCRRHSLYVDFSDVGWNDWIVAPPGYQAFYCHGDCPFPLADHLNSTNHAIVQTLVNSVNSSIPKACCVPTELSAISMLYLDEYDKVVLKNYQEMVVEGCGCR
notes: also called hBMP4; BMP4
